# Test results: PMC8298264, “Function of cofactor Akirin2 in the regulation of gene expression in model human neutrophil-like HL60 cells” (Bioscience Reports, 2021)
# Tested on: human HL60 cells
# Test: SWATH-MS proteomics, differential protein representation, akirin2 KO vs WT HL60 cells
# Type: cell-based
# Conditions: KO vs WT HL60 cells; sheet "Under-represented in KO"
# Method in brief: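 WT and akirin2 KO HL60 lysates (150 µg, n=3 biological replicates) were FASP trypsin-digested and desalted. A spectral library was built by IDA from 3 µg digests, then 5 µg per sample went to variable-window SWATH DIA over a 120-min 5–30% acetonitrile gradient. Identifications were accepted at 1% global FDR, with total-area-sum normalization.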
Molecule,Fold Change,Log (Fold Change)
"sp¦P25815¦S100P_HUMAN (protein, UniProt P25815 1-95, looked up) Protein S100-P: MTELETAMGMIIDVFSRYSGSEGSTQTLTKGELKVLMEKELPGFLQSGKDKDAVDKLLKDLDANGDAQVDFSEFIVFVAAITSACHKYFEKAGLK",0.4762,-0.3222
"sp¦Q9NUQ9¦CYRIB_HUMAN (protein, UniProt Q9NUQ9 2-324, looked up) CYFIP-related Rac1 interactor …: GNLLKVLTCTDLEQGPNFFLDFENAQPTESEKEIYNQVNVVLKDAEGILEDLQSYRGAGHEIREAIQHPADEKLQEKAWGAVVPLVGKLKKFYEFSQRLEAALRGLLGALTSTPYSPTQHLEREQALAKQFAEILHFTLRFDELKMTNPAIQNDFSYYRRTLSRMRINNVPAEGENEVNNELANRMSLFYAEATPMLKTLSDATTKFVSENKNLPIENTTDCLSTMASVCRVMLETPEYRSRFTNEETVSFCLRVMVGVIILYDHVHPVGAFAKTSKIDMKGCIKVLKDQPPNSVEGLLNALRYTTKHLNDETTSKQIKSMLQ",0.4847,-0.3146
"sp¦Q9P035¦HACD3_HUMAN (protein, UniProt Q9P035 1-362, looked up) Very-long-chain …: MENQVLTPHVYWAQRHRELYLRVELSDVQNPAISITENVLHFKAQGHGAKGDNVYEFHLEFLDLVKPEPVYKLTQRQVNITVQKKVSQWWERLTKQEKRPLFLAPDFDRWLDESDAEMELRAKEEERLNKLRLESEGSPETLTNLRKGYLFMYNLVQFLGFSWIFVNLTVRFCILGKESFYDTFHTVADMMYFCQMLAVVETINAAIGVTTSPVLPSLIQLLGRNFILFIIFGTMEEMQNKAVVFFVFYLWSAIEIFRYSFYMLTCIDMDWKVLTWLRYTLWIPLYPLGCLAEAVSVIQSIPIFNETGRFSFTLPYPVKIKVRFSFFLQIYLIMIFLGLYINFRHLYKQRRRRYGQKKKKIH",0.4569,-0.3402
"sp¦P11387¦TOP1_HUMAN (protein, UniProt P11387 2-765, looked up) DNA topoisomerase 1: SGDHLHNDSQIEADFRLNDSHKHKDKHKDREHRHKEHKKEKDREKSKHSNSEHKDSEKKHKEKEKTKHKDGSSEKHKDKHKDRDKEKRKEEKVRASGDAKIKKEKENGFSSPPQIKDEPEDDGYFVPPKEDIKPLKRPRDEDDADYKPKKIKTEDTKKEKKRKLEEEEDGKLKKPKNKDKDKKVPEPDNKKKKPKKEEEQKWKWWEEERYPEGIKWKFLEHKGPVFAPPYEPLPENVKFYYDGKVMKLSPKAEEVATFFAKMLDHEYTTKEIFRKNFFKDWRKEMTNEEKNIITNLSKCDFTQMSQYFKAQTEARKQMSKEEKLKIKEENEKLLKEYGFCIMDNHKERIANFKIEPPGLFRGRGNHPKMGMLKRRIMPEDIIINCSKDAKVPSPPPGHKWKEVRHDNKVTWLVSWTENIQGSIKYIMLNPSSRIKGEKDWQKYETARRLKKCVDKIRNQYREDWKSKEMKVRQRAVALYFIDKLALRAGNEKEEGETADTVGCCSLRVEHINLHPELDGQEYVVEFDFLGKDSIRYYNKVPVEKRVFKNLQLFMENKQPEDDLFDRLNTGILNKHLQDLMEGLTAKVFRTYNASITLQQQLKELTAPDENIPAKILSYNRANRAVAILCNHQRAPPKTFEKSMMNLQTKIDAKKEQLADARRDLKSAKADAKVMKDAKTKKVVESKKKAVQRLEEQLMKLEVQATDREENKQIALGTSKLNYLDPRITVAWCKKWGVPIEKIYNKTQREKFAWAIDMADEDYEF",0.4613,-0.336
"sp¦O95202¦LETM1_HUMAN (protein, UniProt O95202 116-739, looked up) Mitochondrial proton/calcium …: DDSVVEKSLKSLKDKNKKLEEGGPVYSPPAEVVVKKSLGQRVLDELKHYYHGFRLLWIDTKIAARMLWRILNGHSLTRRERRQFLRICADLFRLVPFLVFVVVPFMEFLLPVAVKLFPNMLPSTFETQSLKEERLKKELRVKLELAKFLQDTIEEMALKNKAAKGSATKDFSVFFQKIRETGERPSNEEIMRFSKLFEDELTLDNLTRPQLVALCKLLELQSIGTNNFLRFQLTMRLRSIKADDKLIAEEGVDSLNVKELQAACRARGMRALGVTEDRLRGQLKQWLDLHLHQEIPTSLLILSRAMYLPDTLSPADQLKSTLQTLPEIVAKEAQVKVAEVEGEQVDNKAKLEATLQEEAAIQQEHREKELQKRSEVAKDFEPERVVAAPQRPGTEPQPEMPDTVLQSETLKDTAPVLEGLKEEEITKEEIDILSDACSKLQEQKKSLTKEKEELELLKEDVQDYSEDLQEIKKELSKTGEEKYVEESKASKRLTKRVQQMIGQIDGLISQLEMDQQAGKLAPANGMPTGENVISVAELINAMKQVKHIPESKLTSLAAALDENKDGKVNIDDLVKVIELVDKEDVHISTSQVAEIVATLEKEEKVEEKEKAKEKAEKEVAEVKS",0.5097,-0.2927
"sp¦Q9H7B2¦RPF2_HUMAN (protein, UniProt Q9H7B2 1-306, looked up) Ribosome production factor 2 …: MDTLDRVVKPKTKRAKRFLEKREPKLNENIKNAMLIKGGNANATVTKVLKDVYALKKPYGVLYKKKNITRPFEDQTSLEFFSKKSDCSLFMFGSHNKKRPNNLVIGRMYDYHVLDMIELGIENFVSLKDIKNSKCPEGTKPMLIFAGDDFDVTEDYRRLKSLLIDFFRGPTVSNIRLAGLEYVLHFTALNGKIYFRSYKLLLKKSGCRTPRIELEEMGPSLDLVLRRTHLASDDLYKLSMKMPKALKPKKKKNISHDTFGTTYGRIHMQKQDLSKLQTRKMKGLKKRPAERITEDHEKKSKRIKKN",0.4816,-0.3173
"sp¦Q7L5N7¦PCAT2_HUMAN (protein, UniProt Q7L5N7 1-544, looked up) Lysophosphatidylcholine …: MSRCAQAAEVAATVPGAGVGNVGLRPPMVPRQASFFPPPVPNPFVQQTQIGSARRVQIVLLGIILLPIRVLLVALILLLAWPFAAISTVCCPEKLTHPITGWRRKITQTALKFLGRAMFFSMGFIVAVKGKIASPLEAPVFVAAPHSTFFDGIACVVAGLPSMVSRNENAQVPLIGRLLRAVQPVLVSRVDPDSRKNTINEIIKRTTSGGEWPQILVFPEGTCTNRSCLITFKPGAFIPGVPVQPVLLRYPNKLDTVTWTWQGYTFIQLCMLTFCQLFTKVEVEFMPVQVPNDEEKNDPVLFANKVRNLMAEALGIPVTDHTYEDCRLMISAGQLTLPMEAGLVEFTKISRKLKLDWDGVRKHLDEYASIASSSKGGRIGIEEFAKYLKLPVSDVLRQLFALFDRNHDGSIDFREYVIGLAVLCNPSNTEEIIQVAFKLFDVDEDGYITEEEFSTILQASLGVPDLDVSGLFKEIAQGDSISYEEFKSFALKHPEYAKIFTTYLDLQTCHVFSLPKEVQTTPSTASNKVSPEKHEESTSDKKDD",0.4537,-0.3432
"sp¦Q9Y617¦SERC_HUMAN (protein, UniProt Q9Y617 1-370, looked up) Phosphoserine aminotransferase: MDAPRQVVNFGPGPAKLPHSVLLEIQKELLDYKGVGISVLEMSHRSSDFAKIINNTENLVRELLAVPDNYKVIFLQGGGCGQFSAVPLNLIGLKAGRCADYVVTGAWSAKAAEEAKKFGTINIVHPKLGSYTKIPDPSTWNLNPDASYVYYCANETVHGVEFDFIPDVKGAVLVCDMSSNFLSKPVDVSKFGVIFAGAQKNVGSAGVTVVIVRDDLLGFALRECPSVLEYKVQAGNSSLYNTPPCFSIYVMGLVLEWIKNNGGAAAMEKLSSIKSQTIYEIIDNSQGFYVCPVEPQNRSKMNIPFRIGNAKGDDALEKRFLDKALELNMLSLKGHRSVGGIRASLYNAVTIEDVQKLAAFMKKFLEMHQL",0.4967,-0.3039
"sp¦P42126¦ECI1_HUMAN (protein, UniProt P42126 42-302, looked up) Enoyl-CoA delta isomerase 1, …: FGSQRVLVEPDAGAGVAVMKFKNPPVNSLSLEFLTELVISLEKLENDKSFRGVILTSDRPGVFSAGLDLTEMCGRSPAHYAGYWKAVQELWLRLYQSNLVLVSAINGACPAGGCLVALTCDYRILADNPRYCIGLNETQLGIIAPFWLKDTLENTIGHRAAERALQLGLLFPPAEALQVGIVDQVVPEEQVQSTALSAIAQWMAIPDHARQLTKAMMRKATASRLVTQRDADVQNFVSFISKDSIQKSLQMYLERLKEEKG",0.4682,-0.3295
"sp¦P36776¦LONM_HUMAN (protein, UniProt P36776 68-959, looked up) Lon protease homolog, …: FWEASSRGGGAFSGGEDASEGGAEEGAGGAGGSAGAGEGPVITALTPMTIPDVFPHLPLIAITRNPVFPRFIKIIEVKNKKLVELLRRKVRLAQPYVGVFLKRDDSNESDVVESLDEIYHTGTFAQIHEMQDLGDKLRMIVMGHRRVHISRQLEVEPEEPEAENKHKPRRKSKRGKKEAEDELSARHPAELAMEPTPELPAEVLMVEVENVVHEDFQVTEEVKALTAEIVKTIRDIIALNPLYRESVLQMMQAGQRVVDNPIYLSDMGAALTGAESHELQDVLEETNIPKRLYKALSLLKKEFELSKLQQRLGREVEEKIKQTHRKYLLQEQLKIIKKELGLEKDDKDAIEEKFRERLKELVVPKHVMDVVDEELSKLGLLDNHSSEFNVTRNYLDWLTSIPWGKYSNENLDLARAQAVLEEDHYGMEDVKKRILEFIAVSQLRGSTQGKILCFYGPPGVGKTSIARSIARALNREYFRFSVGGMTDVAEIKGHRRTYVGAMPGKIIQCLKKTKTENPLILIDEVDKIGRGYQGDPSSALLELLDPEQNANFLDHYLDVPVDLSKVLFICTANVTDTIPEPLRDRMEMINVSGYVAQEKLAIAERYLVPQARALCGLDESKAKLSSDVLTLLIKQYCRESGVRNLQKQVEKVLRKSAYKIVSGEAESVEVTPENLQDFVGKPVFTVERMYDVTPPGVVMGLAWTAMGGSTLFVETSLRRPQDKDAKGDKDGSLEVTGQLGEVMKESARIAYTFARAFLMQHAPANDYLVTSHIHLHVPEGATPKDGPSAGCTIVTALLSLAMGRPVRQNLAMTGEVSLTGKILPVGGIKEKTIAAKRAGVTCIVLPAENKKDFYDLAAFITEGLEVHFVEHYREIFDIAFPDEQAEALAVER",0.5023,-0.2991

# Same assay, conditions: akirin2 KO vs WT HL60 cells; sheet "Under-represented in KO"
Molecule,Fold Change,Log (Fold Change)
"sp¦P47985¦UCRI_HUMAN (protein, UniProt P47985 79-274, looked up) Cytochrome b-c1 complex …: SHTDIKVPDFSEYRRLEVLDSTKSSRESSEARKGFSYLVTGVTTVGVAYAAKNAVTQFVSSMSASADVLALAKIEIKLSDIPEGKNMAFKWRGKPLFVRHRTQKEIEQEAAVELSQLRDPQHDLDRVKKPEWVILIGVCTHLGCVPIANAGDFGGYYCPCHGSHYDASGRIRLGPAPLNLEVPTYEFTSDDMVIVG",0.2341,-0.6306
"sp¦Q9NUQ2¦PLCE_HUMAN (protein, UniProt Q9NUQ2 1-364, looked up) 1-acyl-sn-glycerol-3-phosphate …: MLLSLVLHTYSMRYLLPSVVLLGTAPTYVLAWGVWRLLSAFLPARFYQALDDRLYCVYQSMVLFFFENYTGVQILLYGDLPKNKENIIYLANHQSTVDWIVADILAIRQNALGHVRYVLKEGLKWLPLYGCYFAQHGGIYVKRSAKFNEKEMRNKLQSYVDAGTPMYLVIFPEGTRYNPEQTKVLSASQAFAAQRGLAVLKHVLTPRIKATHVAFDCMKNYLDAIYDVTVVYEGKDDGGQRRESPTMTEFLCKECPKIHIHIDRIDKKDVPEEQEHMRRWLHERFEIKDKMLIEFYESPDPERRKRFPGKSVNSKLSIKKTLPSMLILSGLTAGMLMTDAGRKLYVNTWIYGTLLGCLWVTIKA",0.2386,-0.6223
